In a protein production outcome set (Wang et al. 2014):

assay: label from the status in PepcDB records
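Note: failed if final PepcDB status was selected cloned or expressed and not failed if soluble or beyond.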

For “MNMKATALTATTVAIASLLPSMGETNVQTANAEQLSNVKTGYVKVDQVALHTKDNANSSSIDTIRFNTKVNILETTNGWYKVSVNNKVGYVQKDSILLKNKLQSNNQYIVNANALNVRSEPNLESSILDVLPNGKFVTIQEEQGEWYKISHNGKAGYVQKAFVSNGSQPLVKGITVQNNTKYTVATPKLNVRSNASTSSALLGSLQNGTQLQVVETVGTWYKIRFGTGYGYVAKHYVVQNQTQSQTQTAQPTSIPAVFKFPTQGRISSTFDMRWEQMHYGIDIAAPGNVSIQAAAAGKVVKSYYSASYGNVVFIAHQINGKLYTTVYAHMKDRTVQAGDQVQAGQLVGHMGNTGHSYGQHLHFELHNGEWNFEKTNAVNPLPYLVRLEHHHHHH”, which protein production is on record?
The protein production was “failed”.

Which protein production does the source give for “MNMQKLRIELGEETNDELYDLLLLADPSKDIVDEYLERGECYTAWAGDELAGVYVLLKTRPQTVEIVNIAVKESLQKKGFGKQLVLDAIEKAKKLGADTIEIGTGNSSIHQLSLYQKCGFRIQAIDHDFFLRHYDEDIFENGIQCRDMVRLYLDLLEHHHHHH” here?
The protein production was “not failed”.

With “MNMVEPLAVAILIAYLVALLLIGLLSSKKSSVGMTDFFIAGRNLNKWTVALSAVSSGRSAWLVLGVTGTAYATGLDAVWAVAGYITVEVFLFFYVARRFRAYSEQTGSITIPDILETRFNDKTHILRGGSAFIIMFFMIAYVASQLVAGGGAFATSMGVSSSTGMWVTAVILLAYTMLGGFHAVSKTDVVQAGFMFVSLVILPVVAIIGLGGFDPLLQVMHTEGGGFTSPFAFGFGAVIGLLGIGFGSPGNPHILVRYMSLKNVKEMRQAALISSVWNVLMGWGAVMIGLAGRAYFPDVSLLPNGDQEQVFLMLGSEILHPLFFGFLLVAVLAAIMSSADSQLLVGSSAFVRDIYQKMFRRNRKLSQKKLVRLSRLTTVVFMGLSLILAFTAQEFVFWMVLFAFGGLGACFGPALLLSFYWKGVTRQGVLWGMIAGLLTVILVKQQPQWTYAFLPDVKELLNTYFFGITYEAVPGFIVATTITVVISLFTKRPKHAKQIIERLNESA” as the sequence, how does the protein production read?
Its protein production is “failed”.

For “MNNAMQLLQPYPFKKLRALLGSVTPNPEKRPVALSIGEPKHRSPDFVAKALADNLDQMAVYPTTLGIPALREAIAGWCNRRFGVPQGWIDPARNVLPVNGTREALFAFTQTVVNRSDDGLVVSPNPFYQIYEGAAFLAGAQPHYLPCLSDNGFNPDFDAVDADIWKRCQILFLCSPGNPTGALIPVETLKKLIALADEHDFVIAADECYSELYFDEQTPPPGLLSACVELGRQDFKRCVVFHSLSKRSNLPGLRSGFVAGDAEILKAFLLYRTYHGCAMPVQTQLASIAAWNDEEHVRANRDLYREKFDAVLDILAPVLDVQRPDGGFYLWPNVGTDDAAFCRDLFVDQHVTAVPGSYLSREVDGVNPGAGRVRLALVAPLAECIEAAERIRAFVLK”, which protein production is on record?
The protein production was “not failed”.

Which protein production does the source give for “MNNENMVRVFYVLLMGLGFPIMRFMSIHFETLNNNSVRFLSGGSLFVIICLIKFRSELKKIIGEPKIILYLFIYLFILGIFMTGNMFFFINGLKYTSALAGSIFGILAMPLAIIIAGIFFKDERDRIRQKEFYIGELLAIIGSLIFVINSSNNDGNTDFFLGAIFLFTAIFIQSVQNLIVKKVAKKINAVVISASTATISGVLFLCLAFNTKQIYLLQDVGIGMLIGLVCAGFYGMLTGMLMAFYIVQKQGITVFNILQLLIPLSTAIIGYLTLDERINIYQGISGIIVIIGCVLALKRKNKEC” here?
The protein production was “failed”.

For “MNNFTYEKLHNNLQYLKLNTIEELLDNCLEIAARDSKTTMEVLDYLFEQEKKHREAAAIERRMKSAGFPVKKMLEEFDFEFQSSINKKVIEDLATLRFVHNAENIVLLGPPGVGKSHLAIALGIEAVKAGISVHFTNTGNLIERLKIANREGILEKKIRDLMKFKVLIIDEIGYLPFDDEGAHCLFQLISRRYEKSSTILTSNKSYGEWGEIFKDHVIAAALLDRILHHCTTINIKGESYRLKERKKQGIKTGLIRHNSTEILENLEHHHHHH”, which protein production is on record?
Its protein production is “not failed”.

Which protein production does the source give for “MNNIRLLNQNDLDSYIELMKFGHHNYEWDRYYLENVSIDRLKTILSNHTDYWNIFGAFEDDELVATCTLKQMNYVGKCHKAILENNFVKNNDEIVNRELINHIIQYAKEQNIETLMIAIASNNISAKVFFSSIGFENLAFEKNASKIGNEYFDENWLIYSTTE” here?
Its protein production is “failed”.

For “MNNLINNPLFGILLTLFAFEIGMTIYKKTKIPLLNPLLIAIALVIAVLVSCHISFETYNIGGSFINAFLGPATVILAVPLYKQLQLLKNHFVPIMTGIIVGSFASMCCVIIMGYFLGVNHELIASLVPKSVTTPIGVEVASGLGGIPSITVIAVIITGITGAIIAPMVCKLLKIDHEVAMGVSMGTAAHAVGTTKALEIGETHGAMSSLSIGVAGLITVFLAPPIYMLSALILKFV”, which protein production is on record?
Its protein production is “failed”.

For “MNNLPLLNDLRVFMLVARRAGFAAAAEELGVSPAFVSKRVSLLEQTLNVMLLHRTTRRVTITEEGERIYEWAQRILQDVDEMMDELSDVRQVPQGTLRIISSFGFGRRVVAPALSALALQYPQLELRFDVQDRLVDLVNEGVDLDIRVGDDIAPNLIARQLAANHRVLCASPQFLARHAPPKQLSDLAALPCLVIKERDHPFGVWQLHSKEGQHAIKVTGPLSSNHGEIVHQWCLDGQGIALRSWWDVRENIASGHLVQVLPDYWQPANVWAVYVSRLATSAKIRTTVEFLRHYFQLHYPQHEPTASAVGRGD”, which protein production is on record?
Its protein production is “failed”.

With “MNNPKPCEWKSNELSRGYIADYKAFNFVDGEGVRCSLYVSGCPFHCEGCYNKAAQSFKYGKPYTKELEDDILKDIGHESVQGLTLLGGEPFLNTATCLSIVKRIRATYGETKDIWSWTGYTWDEMMQETADKLELLSLIDVLVDGRFEQKLFDPNLAFRGSSNQRIIDVQKSLAAGEVVLYELLEHHHHHH” as the sequence, how does the protein production read?
The protein production was “failed”.

Which protein production does the source give for “MNNPQDYSHKECLKASLLETFGFDGFRPGQEQTITQLLKGQSSLSIFPTGSGKSLCYQLTALHLPHLTLVVSPLLALMKDQLSFLASKGIKAASIDSTLKGNEAQTVMAGVRDGDIKVLMVSVERFKNERFRQFIESVPVSMLVVDEAHCISEWGHNFRPDYLKLPSYCQALNISLVLLLTATATRKVKQDMAAKFAIRDEHIVQTGFYRSNLDLSVLPVTQAHKNKQLEQIISAQQGAGIVYVTLQHSAETVAQYLKQQGINACAYHAGFDSDTRSQIQQDFMAGKIQVIVATIAFGMGIDKSNIRFVIHYDLPKSIENYSQEIGRAGRDGLPSQCFTLANLDGLNTVENFVYGDTPEFTGIEMLLNTIKSEVITSTHVGISDNRSEGKWELQILQLSNAVNIKQLPLKTLLVQLELAGVIEPLYAYFADFKIKLLKPKAEIINSFNDQRKDFLQRIFNATDFKKVWGSLNFDTLLQDQSIERNRVIAALEYLQEQQLIVLETKGMTEVFNIKLNELADPSLCQTLSNYFKDNEEKEIKRIATLVRFFQLDTCLTVNLARYFDDTSFDDKRFDGNSSDNNSLDSARNSGTVPQCGHCSVCRGQVAVLEHSQAQIPWPSDEALKQGMTELAERLSGKINQPLSIESFCRFFAGMSVPLFGRNKVRQLSGFGVCEQQRYQAILEKLASLSK” here?
The protein production was “failed”.

For “MNNSAFTFQTLHPDTIMDALFEHGIRVDSGLTPLNSYENRVYQFQDEDRRRFVVKFYRPERWTADQILEEHQFALQLVNDEVPVAAPVAFNGQTLLNHQGFYFAVFPSVGGRQFEADNIDQMEAVGRYLGRMHQTGRKQLFIHRPTIGLNEYLIEPRKLFEDATLIPSGLKAAFLKATDELIAAVTAHWREDFTVLRLHGDCHAGNILWRDGPMFVDLDDARNGPAVQDLWMLLNGDKAEQRMQLETIIEAYEEFSEFDTAEIGLIEPLRAMRLVYYLAWLMRRWADPAFPKNFPWLTGEDYWLRQTATFIEQAKVLQEPPLQLTPMY”, which protein production is on record?
The protein production was “not failed”.

Which protein production does the source give for “MNNSTQTAPDSGNTLVISNVHLLLSDGWKNDTCLQVTEGVITAIGQDVVQGNSQVIDAGGGYLLPGIIDLHGDAFERHITPRAGTLFPLDLALAANDASLVANGITTFYYSITDGFEPGPRSRETVRKLLLALEELMPRFSCQAKVHIRHEKVNTEGHDELVDWLRNGRVHMLSLNDHLPELDNERAVKRYLAGLQRRVTMDDDATQEFLSSLQGRRELGEEQTRALASLALASGVSLSSHDDHGLEDVARNVQLGTAIAEFPMDAQTALESRKSGISVLMGAPNLVRGGSHVGAISVRDAIAEGLVDILCSDYHYPSLFTAPFVTARHDLLPLADAWKMVSENPARAAGMGDRKGQIAPGYDADLLLLSELDGSPLSLQATFVGGTPVYQREGQWQKQPLAAEAGGVVV” here?
Its protein production is “failed”.

For “MNNTPVEPVRLTPDNPLVSVVIRTKDRPKRLAEAVRSVREQTHRPLEVIVVNDGGWPLPEEALKEQAGDVELILIQLEQNQGRSIAANTGLQAATGRYLCFLDDDDRFLPDHIELLSSCLEHIEHRVCYSDAELCWQVYNVETGEFDIVNRQVFGSRDFNLAELLCGNYIPLNTLLFDRQVLLQVGGFDPQFDIYEDWDLLLRVGSLYPFYHLPRVTAQYNQWSKDHQNFYNHFSQTGQAPLLHITGYDRLIEKNRHLFSADAARHLLSVINRLRAIEAELAQRDAVPAESPLTRLTAQLEQTLATIGPSFATLEGRLADLDACQRDALVSATSKLNEGVSDLDGLRSQVAHLCMEFENASGKIDTSQAELQKTATLLVQTQNLLEDYRKEIARTTELNRLISERDSELRTLRQTIARNEAEITALHKERNEANATISALDEKVAHAETEKASLHQIIAQTEARLASVYGSTSWRIAAPLRAVSVAVRWLLRNTRRAFLLMWWLCTGQYARATNHAFPHLWRHVPPRLKMIIPPRLAGSVKRRLHLADITAPRPLENQPDNSHPDTTAEAHVTLDVPERHYVDLSSEPVAHTPIKAIAFYLPQFHTIPENDKWWGEGFTEWTNTRKGKPLFDGHHQPRVPLHLGYYNLENIEVYAQQVQLARKAGLYGFCFYFYWFGGKTLLEKPLLNMLANPQIDQPFCLCWANENWTRRWDGLDDDILIAQHHSEEDAIAFLRYINTYFRDDRYIKIDGKPLLLVYRPSIIPDITHIQEVWRKHATELGWPGIYLVSAQTFGQKDPRDFHFDAAVQFPPQHAAPCAAFHSETPNLADDFEGCVFDYHNVATQFCDSPEVDYKLFRSVTLAWDNSARRGKRATILRNFSLTSYAQWLLTACKATLADHNLTENERLVFINCMERMGRGHLSGAGHQIWLWIPGSHKKGAECILGWKTQAIRNRSKL”, which protein production is on record?
Its protein production is “failed”.

Which protein production does the source give for “MNPADWIDTGAVPPRPLPAKVDAALAYLAEALGHPVYAHWTLTRIKRRYGSLADAKAAQPTVLKLLLTHDGAVEYWERGRLRTAPADQAPSPDAVLARLLHTHRRRFRSADASANAGAVPATAQTTGLVANPWLAAHSHADHAWLARTGRFAQPQAAANTLGAVDDAQALALFLRDRTGRSSHTLRAYGAELRRLMRWCGTHGFGPFSDLTRQQLLAYRHTLEHGSSGTANTTPPLSEATRTRALAVVASLYGYWYATGYLHANPAAGLSAGSRARSGFVPTRLIPSALLDACDAWLDANSAGDLLPALRQRAIWALYRYAGVRLAELAWSAETALPRLEAEAPGRWTLYVCGKGRKVRAIPLPAQCMVVLRAYRRARGLPPEPSAHETLPVIHGSKGEALQQTGLYREIKAIFAVVADGLQAREPAKAMLLRAASPHWLRHAYARTLVVDHQVPLPAAQALLGHASVQTTAAYAKTDLTQLRAFVDATFADDVP” here?
Its protein production is “failed”.

For “MNPAPFLLLGGALAWLTLYLLGGRKVKAGEFILGAIIFPLSITLQNIVQQLPLLWVGIRPDITSLGTSEIIAISIWMGLIAGIFQELFKYIFVRGKSAGYAFSVGLGFAISEVIFITALVTLSAKGGTPSQPFATNLLSLAERYLVVLFHVGTAIMLTQGTRKVLIEVIGLHALIDSMAAYYQLMSAVYIKTNKIYMIPRILLLTEIVLAVITVIVLIASLPKISQVKEEKEEVIW”, which protein production is on record?
Its protein production is “failed”.

For “MNPAYRKAMLESEIQKLLMEALQQLRDPRLKKDFVTFSRVELSKDKRYADVYVSFLGTPEERKETVEILNRAKGFFRTFIAKNLRLYVAPEIRFYEDKGIEASVKVHQLLVQLGYDPLKDKEKKEEDKEEE”, which protein production is on record?
Its protein production is “not failed”.

With “MNPEPRCPCVLLLDTSGSMQGAAIEALNQGLLSLKDELMKNSIAARRVEIAIVTFDSHINVIQDFVTADQFNPPILTAQGLTSMGAGIHKALDMVQERKSLYRANGVAYYRPWVFMITDGEPQGELDHLVEQAALRLQGDEVNKRVAFFSVGVENANMTRLNQIAVRTPLEHHHHHH” as the sequence, how does the protein production read?
Its protein production is “failed”.
